Measurements as given in patent US20120183545A1 (Merck KGaA, published 2012).

B2: human CD20 antigen on Daudi lymphoma cells (other, UniProt P11836 1-297, looked up)
chain: MTTPRNSVNGTFPAEPMKGPIAMQSGPKPLFRRMSSLVGPTQSFFMRESKTLGAVQIMNGLFHIALGGLLMIPAGIYAPICVTVWYPLWGGIMYIISGSLLAATEKNSRKCLVKGKMIMNSLSLFAAISGMILSIMDILNIKISHFLKMESLNFIRAHTPYINIYNCEPANPSEKNSPSTQYCYSIQSLFLGILSVMLIFAFFQELVIAGIVENEWKRTCSRPKSNIVLLSAEEKKEQTIEIKEEVVGLTETSSQPKNEEDIEIIPIQEEEEEETETNFPEPPQDQESSPIENDSSP
notes: whole, on cells; also called Bp35

What was measured:
[1] = molecular target: IL-2 Rβ on TF-1β cells (UniProt P14784); assay: cell-based or functional assay
[2] = molecular target: high affinity IL-2R on a mouse cell line (CTLL-2) (mouse) (UniProt P01590); assay: cell-based or functional assay
[3] = molecular target: T1, human CD20 antigen on Daudi lymphoma cells (human) (UniProt P11836); assay: flow cytometry on Daudi cells; antibody at 0.625 g/ml as printed
T1 sequence (looked up): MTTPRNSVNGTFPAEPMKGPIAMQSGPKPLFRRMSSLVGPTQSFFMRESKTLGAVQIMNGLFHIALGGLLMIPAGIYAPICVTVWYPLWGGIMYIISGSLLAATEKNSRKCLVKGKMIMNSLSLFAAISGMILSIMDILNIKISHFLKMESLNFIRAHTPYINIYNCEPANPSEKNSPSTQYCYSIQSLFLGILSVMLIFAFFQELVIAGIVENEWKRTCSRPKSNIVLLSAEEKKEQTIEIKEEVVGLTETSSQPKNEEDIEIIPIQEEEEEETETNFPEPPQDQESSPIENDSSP

[4] = molecular target: T1, human CD20 antigen on Daudi lymphoma cells (human); assay: flow cytometry on Daudi cells; antibody at 0.078 g/ml as printed
[5] = molecular target: T1, human CD20 antigen on Daudi lymphoma cells (human); assay: flow cytometry on Daudi cells; antibody at 10 g/ml as printed
[6] = molecular target: T1, human CD20 antigen on Daudi lymphoma cells (human); assay: flow cytometry on Daudi cells; antibody at 2.5 g/ml as printed
[7] = molecular target: T1, human CD20 antigen on Daudi lymphoma cells (human); assay: flow cytometry on Daudi cells; antibody at 5 g/ml as printed
[8] = molecular target: T1, human CD20 antigen on Daudi lymphoma cells (human); assay: flow cytometry on Daudi cells; antibody at 0.313 g/ml as printed
[9] = molecular target: T1, human CD20 antigen on Daudi lymphoma cells (human); assay: flow cytometry on Daudi cells; antibody at 0.156 g/ml as printed
[10] = molecular target: T1, human CD20 antigen on Daudi lymphoma cells (human); assay: flow cytometry on Daudi cells; antibody at 1.25 g/ml as printed
[11] = molecular target: B2; assay: flow cytometry on Daudi cells, FIG. 6 Panel A
Experimental: FIG. 6 illustrates the anti-CD20 binding activity of CD20-binding polypeptide compositions and immunocytokines (ICs). Human Daudi lymphoma cells were incubated with varying concentrations of polypeptide compositions and ICs and relative binding to the cells was assessed by flow cytometry, as described in Example 2.
(§1) Approximately 10⁶ Daudi cells were used with various concentrations of antibody or antibody-IL2 fusion protein in a 100 μl volume, for each sample tested.

[12] = molecular target: T2, Leu16VhY/VkZ-IL2 (anti-CD20 PC2) (human, UniProt P60568 21-153); assay: flow cytometry on Daudi cells
T2 construct: Antibody-IL2 fusion (immunocytokine), glycosylated; also called AbVhY/VkZ-IL2; Ab(VhY/VkZ)-IL2; not shown: human kappa light chain constant region
Experimental: as §1

Chain of high affinity IL-2R on a mouse cell line (CTLL-2) (mouse) (P01590 22-268, chain 1 of 3): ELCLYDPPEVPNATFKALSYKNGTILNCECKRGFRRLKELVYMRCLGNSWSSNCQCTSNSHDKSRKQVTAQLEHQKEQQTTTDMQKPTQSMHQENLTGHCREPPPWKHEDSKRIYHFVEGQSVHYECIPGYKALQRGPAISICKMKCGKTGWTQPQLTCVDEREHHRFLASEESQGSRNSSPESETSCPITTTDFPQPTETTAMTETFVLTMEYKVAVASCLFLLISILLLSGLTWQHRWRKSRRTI
Chain of high affinity IL-2R on a mouse cell line (CTLL-2) (mouse) (P16297 27-539, chain 2 of 3, further chain): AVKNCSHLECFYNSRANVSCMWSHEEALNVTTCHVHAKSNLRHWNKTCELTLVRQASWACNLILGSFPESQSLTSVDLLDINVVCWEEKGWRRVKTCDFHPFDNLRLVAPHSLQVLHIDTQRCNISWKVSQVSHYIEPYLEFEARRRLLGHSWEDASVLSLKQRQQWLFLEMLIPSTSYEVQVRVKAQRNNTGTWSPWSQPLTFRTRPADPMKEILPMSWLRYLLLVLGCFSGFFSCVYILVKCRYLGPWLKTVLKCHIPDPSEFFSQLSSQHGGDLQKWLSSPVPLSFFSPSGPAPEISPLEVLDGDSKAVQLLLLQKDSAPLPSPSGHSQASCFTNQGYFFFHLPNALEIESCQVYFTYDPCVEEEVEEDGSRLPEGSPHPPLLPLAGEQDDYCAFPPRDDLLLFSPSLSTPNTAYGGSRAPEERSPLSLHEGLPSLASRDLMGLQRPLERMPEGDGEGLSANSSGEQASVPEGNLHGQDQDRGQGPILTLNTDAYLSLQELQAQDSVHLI
Chain of high affinity IL-2R on a mouse cell line (CTLL-2) (mouse) (P34902 23-369, chain 3 of 3, further chain): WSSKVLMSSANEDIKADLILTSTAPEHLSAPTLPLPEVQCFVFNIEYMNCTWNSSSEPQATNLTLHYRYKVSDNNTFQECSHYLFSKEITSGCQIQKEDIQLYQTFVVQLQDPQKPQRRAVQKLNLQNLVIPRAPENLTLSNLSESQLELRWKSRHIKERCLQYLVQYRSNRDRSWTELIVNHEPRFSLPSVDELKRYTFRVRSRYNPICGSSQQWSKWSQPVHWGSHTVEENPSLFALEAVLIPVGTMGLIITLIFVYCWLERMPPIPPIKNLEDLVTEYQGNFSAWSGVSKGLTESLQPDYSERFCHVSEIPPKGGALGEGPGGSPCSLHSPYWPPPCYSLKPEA
T2 sequence (P60568 21-153 limits assumed): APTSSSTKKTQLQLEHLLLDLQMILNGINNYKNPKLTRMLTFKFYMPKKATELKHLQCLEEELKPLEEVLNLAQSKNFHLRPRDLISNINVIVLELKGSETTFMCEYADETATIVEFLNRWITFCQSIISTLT
Chain of IL-2 Rβ on TF-1β cells (P14784 27-551): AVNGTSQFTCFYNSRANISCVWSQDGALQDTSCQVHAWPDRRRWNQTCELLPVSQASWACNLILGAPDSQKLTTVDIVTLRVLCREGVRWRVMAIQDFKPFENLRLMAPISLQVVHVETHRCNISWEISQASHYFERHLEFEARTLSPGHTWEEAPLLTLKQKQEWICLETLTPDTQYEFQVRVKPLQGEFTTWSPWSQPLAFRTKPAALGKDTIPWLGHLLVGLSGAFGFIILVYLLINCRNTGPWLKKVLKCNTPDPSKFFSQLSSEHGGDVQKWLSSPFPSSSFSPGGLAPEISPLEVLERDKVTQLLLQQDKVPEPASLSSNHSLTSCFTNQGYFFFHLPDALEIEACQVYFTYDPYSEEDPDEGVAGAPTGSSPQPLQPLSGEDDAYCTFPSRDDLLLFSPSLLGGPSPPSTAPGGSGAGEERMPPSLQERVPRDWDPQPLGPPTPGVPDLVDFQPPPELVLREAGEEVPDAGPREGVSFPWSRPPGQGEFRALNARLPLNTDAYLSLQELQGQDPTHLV

Molecule: KS-IL2, anti-EpCAM antibody fused to human IL-2 at the C-terminus of the antibody heavy chains (from UniProt P60568 21-153)
- TF-1β ED50 [1]: 0.51 ng/mL
- CTLL-2 ED50 [2]: 1.71 ng/mL

Molecule: 2B8-IL2 fusion protein
- mean fluorescence intensity [3]: 229
- mean fluorescence intensity [4]: 52.1
- mean fluorescence intensity [5]: 857
- mean fluorescence intensity [6]: 513
- mean fluorescence intensity [7]: 720
- mean fluorescence intensity [8]: 147
- mean fluorescence intensity [9]: 85.3
- mean fluorescence intensity [10]: 369

Molecule: human rIL-2 (from UniProt P60568 21-153) (ligand)
- CTLL-2 ED50 [2]: 0.65 ng/mL

B1: Leu16VhY/VkZ (anti-CD20 PC1) (antibody, IgG1, V domains shown)
VH: EVQLQQSGAELKKPGASVKVSCKASGYTFTSYNMHWVKQTPGQGLEWIGAIYPGNGDTSYNQKFKGKTTLTADKSSSTAYMELSSLRSEDTAVYYCARSNYYGSSYWFFDVWGTGTTVTVSS
VL: DIVLTQSPAIITASPGEKVTMTCRASSSVNYMDWYQKKPGSSPKPWIYATSNLASGVPSRFSGSGSGTTYSMTISSLEAEDAATYYCQQWSFNPPTFGGGTKLEIK
notes: Chimeric IgG1/kappa antibody; also called DILeu16; DI-Leu16 antibody; not shown: human kappa light chain constant region
- binding result [11]: binds

Molecule: B2
- binding result [12]: binds
